Reference: publication doi:10.1101/2023.02.27.530186 (bioRxiv, 2023)

Tests used:
[1] = biological target: T3 SAMase E68Q/Q94A, C-terminally His6-tagged (bacteriophage T3) (UniProt P07693); test: mass photometry
[2] = biological target: T3 SAMase, wild type, C-terminally His6-tagged (bacteriophage T3) (UniProt P07693); test: cryo-EM structure
[3] = biological target: T3 SAMase, wild type, C-terminally His6-tagged (bacteriophage T3) (UniProt P07693); test: SEC-SAXS
[4] = biological target: T3 SAMase E68Q/Q94A, C-terminally His6-tagged (bacteriophage T3) (UniProt P07693); test: SEC-SAXS
cryo-EM structure = biological target: the molecule itself; test: cryo-EM structure

B1: MetK, SAM synthase (methionine adenosyltransferase) of E. coli, endogenous (enzyme, UniProt P0A817 1-384, looked up)
chain: MAKHLFTSESVSEGHPDKIADQISDAVLDAILEQDPKARVACETYVKTGMVLVGGEITTSAWVDIEEITRNTVREIGYVHSDMGFDANSCAVLSAIGKQSPDINQGVDRADPLEQGAGDQGLMFGYATNETDVLMPAPITYAHRLVQRQAEVRKNGTLPWLRPDAKSQVTFQYDDGKIVGIDAVVLSTQHSEEIDQKSLQEAVMEEIIKPILPAEWLTSATKFFINPTGRFVIGGPMGDCGLTGRKIIVDTYGGMARHGGGAFSGKDPSKVDRSAAYAARYVAKNIVAAGLADRCEIQVSYAIGVAEPTSIMVETFGTEKVPSEQLTLLVREFFDLRPYGLIQMLDLLHPIYKETAAYGHFGREHFPWEKTDKAQLLRDAAGLK
For B1, the stoichiometry N (SAMase per MetK subunit (4:4)) [1] was 1, the stoichiometry N (SAMase per MetK subunit (4:4)) [2] was 1 and the stoichiometry N (SAMase per MetK subunit (4:4)) [3] was 1. For the same binder, the stoichiometry N (SAMase per MetK subunit (4:4)) [4] was 1 and the “stoichiometry N” value (cryo-EM structure) was 4.
